The values that follow come from the DeepSol protein solubility set.

The data set can be described thus: soluble on expression in E. coli; label from the status in PepcDB or PDB records.
As for “MSLDDRSIRAEERSDKLMNLKIKNITCSIKKVPLKRPFITALHKVTEIEGLKIVVELSDGQTGTGTATPNEKVTGDTLQSSLDIVNQVIKPALINQDFKNWNKLLTTLQTCIVHNTAAKAAMDIALYQLKAKENNESLVNLLGSEKGKLTTDYTISIGSDDHMVSEAKSLVKDGFTAIKIKLGNNSVSHDIKTIQKISKAVGPDISLRIDCNQAWNYKDTLKASRIWAQDNLNIDFIEQPVLKDAISDLTLLSENSPYPIMADESVASYQDAINLIKHHACDYINIKLMKTGGLSEAIKINDLAQACGIKTMVGCMIEPVESIAAAAAFAVANKNVKFIDLDSIFMATQDPDLGKYLKIKNNEIILKDEGHHHHHH”, the “soluble on expression in E. coli” value is listed as “soluble”.

Take “MSLDEDAQISAVQDGFINFYADDAVTPYVALAARGPWVITLKGAVLYDAGGYGMLGFGHTPEAVLDAMARPQVMANVMTPSLAQRKLDRALRAEIGHTRGGCPFARFMCLNSGSEAVGLAARIVDTNAKLHTDPGARHAGATIKRLVVKGSFHGRTDRPGLYSDSSRKTYSKYLASYRDEDSVIAIAPYDIAALQRAFDEAARNHWFIEAVFLEPVMGEGDPGRALPAEFYAAARTLTRNHGSLLLVDSIQAGLRAHGVLSVVDYPGFEQLDPPDLETYSKALNAAQYPLSVLAVTEQAAQVYRKGTYGNTMTTNPRALDVACATLALFTPQIRDNIRLRGAQALRKLEALQAELGGLITKVQGTGLLFSCELAPQYKCYGAGSTEEWLRHHGVNVIHGGENSLRFTPHFGMDEAELDLLVGLIAKALKEGPRQAQAEAEGHHHHHH”: the “soluble on expression in E. coli” value is given as “not soluble”. With “MSLDEVSQKPHERLAAWLAEDMAAVNGLIRERMASKHAPRIPEVTAHLVEAGGKRLRPLLTLAAARLCGYEGPYHIHLAATVEFIHTATLLHDDVVDESHRRRGKPTANLLWDNKSSVLVGDYLFARSFQLMVETGSLRVMDILANASATISEGEVLQLTAAQDLRTTEDIYLQVVRGKTAALFAAATEVGGVVAGVPEAQVEALHAYGDALGIAFQIVDDLLDYGGVDAQIGKNTGDDFRERKLTLPVIKAVAQADAEERAFWQRVIEKGDQREGDLEQAHAIMSRHGAMEAARQDALRWVTVAREALGQLPEHPLREMLHDLADFVVERIAEGHHHHHH” the entry was “soluble”; with “MSLDFVIEMLGIRKEFSGFVANDNITLQLKQGEIHALLGENGAGKSTLMNVLFGLYEPDGGEIRVRGTKENINSPNKANELGIGMVHQHFMLVDKFTVAENIILGKEPSKLGVIEKKKAIEEIKEISDRYGLRVDPNAVVRDISIGMQQRVEILKTLYRGADILIFDEPTAVLTPQEIKELIQIMRSLIKEGKSIILITHKLKEIMDVCDRVTVIRRGKGMGTVNVPETTPQDLANLMVGREVVFTTEKIDAKPGKDVLEVKDLVVKESRGVESVRGLNLTVRAGEIVGIAGVDGNGQSELISAIAGLSKVTSGSILLNGEHIENKKPRKITEAGLGHIPEDRHKHGLVLEMSLGENIALQTYYKKPISSKGFLNHKAMYDFARELIEEYDVRASSEYVAAKSLSGGNQQKAIIAREIHRNPDFLIAAQPTRGLDVGAIEFIHRRLIEQRDNGKAVLLMSFELDEIMNVSDRIAVIYEGKIVAIVDPKETTEQELGLMMAGSSKQEAEMGEKEGHHHHHH”, “not soluble”.

“MSLDIQIQYSTDWKEEFLKRLEDGGPWSNWEMGKLAYEAANYQVIPEFHGLQAPKHLPQLQPFPHQMEVAQTVIEQMNGKAILADEVGLGKTIEAGLILKEYMIRGLAKKVLILVPASLVSQWAYELSSKFYIPAIPQKKAYVWEQYDVVVASIDTAKRQPHRDIVLNQHYDLVIIDEAHKLKNPKTKNYAFIKSLKRKYCLLLTATPVQNKLEEIFNLVSLLKPGHLGDLESFEKEYRANKRAPKNEDKLKELVNKVMVRNRREETGIEWTKRIVQTVPITFSEGERAFYHAITKLKQQPDVMTNSFSLLTLQREICSSREAAFMTLKNMITKLEQEGRTSPILESLIEQVGTIEGHAKAEKALELIQQINDKVIIFTEYRATQLYLQWYLKQHGISSVPFRGGFKRGKKDWMRQLFENRAQVLIATEAGGEGINLQFCHHIINYDLPWNPMRIEQRIGRIHRLGQTEDVRIYNFAVKDTIEEQILTLLYEKIQLFERVVGELDDILTKMNVGSIEEHIRDIFVHSDSEGEMKIKLDHLSAIMNDVANEKEEDHATGATASVSDALLEGHHHHHH”: the “soluble on expression in E. coli” value is reported as “not soluble”. With “MSLDIRGMTVEEAEPVVKKFIDDLMMNGISKGYIIHGKGTGKLASGVWEILRKDKRVVSFRFGTPSEGGTGVTVVEVKEGHHHHHH” the entry was “not soluble”; with “MSLDKIMNEAISPWMKGDGPDSDIVLSSRIRLARNFKQYQFSTMQNEEEAQKVQELFKKKFINKAVEPFGKFGLLKMNELTPLQRRVLVEKHLISPNLAGTEYGACLLSESEHISVMLNEEDHIRIQCLFPGLQLSKALQSANQIDNWIEKEVEYAFDESLGYITSCPTNVGTGLRASVMIHLPGLVLTKRISRIIQVIQKLGLVVRGIYGEGSEALGNIFQVSNQMTLGKSEEDIIADLKSVMQQIIQQEKLARELIVQNSSIELEDKVYRSYGILANSRLIQSAEAATCLSDVRLGIDLGYIKGISRNILTELMVLTQPGILQQYAGGPLGPEERDYRRATLIRERLRIEKN”, “not soluble”. With “MSLDKSIPVPEPSRMITGIKVHKISDVITYQGMISLTYDNNKRLTRIYSSSPLAAVNYTYKENSEVSYTYSTENSPLVEISTSLENGRSYVCKFSNRENPVTYSYDNEGYLKSCNNNGTVLEYNWESGNLSSITTTPRGTYNSDYRVSNIANDYSLDLNTLAQWIDDRENYTTVMNTFGQMAEILGKRSANILEDTYYIYDYSFRQDGRLKDMTLMGGSENIGYSFRFSYADDTEVSEGHHHHHH” the entry was “soluble”; with “MSLDLEFHGVMRFYFQDKAAGNFATKCIRVSSTATTQDVIETLAEKFRPDMRMLSSPKYSLYEVHVSGERRLDIDEKPLVVQLNWNKDDREGRFVLKNENDAIPPKAQSNGPEKQEKEGVIQNFKRTLSKKEKKEKKKREKEALRQASDKDDRPFQGEDVENSRLAAEVYKDMPETSFTRTISNPEVVMKRRRQQKLEKRMQEFRSSDGRPDSGGTLRIYADSLKPNIPYKTILLSTTDPADFAVAEALEKYGLEKENPKDYCIARVMLPPGAQHSDEKGAKEIILDDDECPLQIFREWPSDKGILVFQLKRRPPDHIPKKTKKHLEGKTPKGKERADGSGYGSTLPPEKLPYLVELSPGRRNHFAYYNYHTYEDGSDSRDKPKLYRLQLSVTEVGTEKLDDNSIQLFGPGIQPHHCDLTNMDGVVTVTPRSMDAETYVEGQRISETTMLQSGMKVQFGASHVFKFVDPSQDHALAKRSVDGGLMVKGPRHKPGIVQETTFDLGGDIHSGTALPTSKSTTRLDSDRVSSASSTAERGMVKPMIRVEQQPDYRRQESRTQDASGPELILPASIEFRESSEDSFLSAIINYTNSSTVHFKLSPTYVLYMACRYVLSNQYRPDISPTERTHKVIAVVNKMVSMMEGVIQKQKNIAGALAFWMANASELLNFIKQDRDLSRITLDAQDVLAHLVQMAFKYLVHCLQSELNNYMPAFLDDPEENSLQRPKIDDVLHTLTGAMSLLRRCRVNAALTIQLFSQLFHFINMWLFNRLVTDPDSGLCSHYWGAIIRQQLGHIEAWAEKQGLELAADCHLSRIVQATTLLTMDKYAPDDIPNINSTCFKLNSLQLQALLQNYHCAPDEPFIPTDLIENVVTVAENTADELARSDGREVQLEEDPDLQLPFLLPEDGYSCDVVRNIPNGLQEFLDPLCQRGFCRLIPHTRSPGTWTIYFEGADYESHLLREGHHHHHH”, “soluble”; with “MSLDLISFSVPGNLLLMGEYTILEEKGLGLAIAINKRAFFSFKKSDSWRFFSKKKKIDDFSLIENRSDFVFKMFAYLSQNCFFNLENFAYDVYIDTSNFFFNDGTKKGFGSSAVVAIGIVCGLFLIHNATNVVEKGEIFKYCLEAYRYSQGGIGSGYDIATSIFGGVIEFEGGFNPKCRQLGAVEFNDFYLMQGLQAIKTTTSICEYNKHRNSILDFILKCNLEMKKLVLNASNSKSALISSLRRAKELGLAIGEAIGVSAALPSSFDHLLGQCDLIKALGAGNETFLVYRPNIEAFNLSKIISIVLENEGIKFESDKEGHHHHHH”, “not soluble”. With “MSLDNKNKSEVQAQETVQVSYKEKNRESSLASALDVLSRFGGFNFLESTVDGVQNLNPERKARKKIFLTDEQKQEEREVLKNKIDMWIDLLNSSSAVTEMIATSKAKSEAAASHLAKSQLVAVQSVRDMEQAYRGVMLFYKNTEADKVNNVTIVNASKEQLTDLDNPRFIDFVARELKQNYDKLDLRQNYSLLAIPGYLGSNKVLEKWAKIAYENKVMLYTDFADLDKPEDVVELFSSSNMASGEAFKSNTCMTCNWLVGRAGYREIGEEEDLHVSPSIALMGKVYTTLMSQVTAGKKYGGINEIDAVVFPLKKSEISQLEKMGLIPMVNEYGKVMAFSAKTLFNGDNLGLQTYSVVRVFDYITKVLFDFLNRRSFENWSSKTERDLRGQIVQYLDSVQGADRLIEKFKIIRFEQDQKQKDRIYLDIHMTPFFPAKSFVIKLDGTKGDDGTNWNTNYEEGHHHHHH” the entry was “not soluble”. Take “MSLDPDAGVIFARTAAGAAVALGLLKCGRIWLCPVCSGQDPARPSEEITEAVVSWLQQGGWAYLVTFTARHTAADRLSDLMDALQGTRADAETGTKRRPGAYQRLITGAAWAGDKRRKSNQEGIRGRIGYIGMIRATEVTVGEGAGWHPHIHAIVLVGGRTEGQRGDKRITGTFTPSEDALTEWEDRWRRSGPATLARSTPGFRPPTGARSPGATAGARATASTSSSSVRSGRQRPGRVHRQDAGRQEPGPGAGTRRPQGRPPGQHDVLRTPSRIGDLMGGVPEEEAAGHGSLAWGLDRWAEYETAVSGAGHRVDPLPAPAPGPDRRRHRGRRHGRPVPDRAARRFRDGVQIWDRAWKGLVGRSLDLAVVEAVEGREISMDALGELVQSAGQSRAFLRVLTPQEVTELYDELLRTLARRREQAAERRAAEAAEAEPTTREGHHHHHH”: the “soluble on expression in E. coli” value is recorded as “not soluble”. Then “MSLDPHAPLAERLRPRTLDDVVGQSHLLGPGKPLRLAFDSGKLHSMILWGPPGVGKTTLARLTAQAFGADFIAISAVLSGVKDIREAVERARMNQKLGRATILFVDEVHRFNKSQQDAFLPHVESGLFTFIGATTENPSFEVVGALLSRAQVYVLKSLTPDELGRLMQRALQELPSLKLADGVDKLLAAYADGDARKLLNLLEQLDTAARTAQVEEADAAFVENALAQSLRRFDKGGEAFYDQISALHKSVRGSDPDASLYWLVRMLDGGADPRYLGRRLVRMASEDIGMADPRALRLALDAVETYERLGSPEGELALAEACLYLACAPKSNAAYVAYNAARAFVEANPSNDVPIHLRNAPTKLMKELGYGRAYRYAHDEPEAYAAGERYFPDDIAEQQFYEPTPRGLEGKIAEKLAHLRELDDEAEKEGHHHHHH”, with “soluble”; and “MSLDRELKNLHLNISQLAALSGAHRQTVAARVKNISPAGGHESNLKLYRLTDILAELMKAPLPVDNEEMDPHARKAWYQSERDRLKFEQETGQLVPVSDVRRSFSVVVKAIVQVLETWPDRLERDRGWTASQLNEVQIVVDEIRDTLEKAVIDCCDEADEGHHHHHH”, with “soluble”.
